# According to patent US20070179086A1 (Amgen, published 2007):
# Target: T1, recombinant human TR-2 with a C-terminal hexahistidine tag (TR-2-His) (human, UniProt O14763 56-207)
# T1 construct: also called soluble TR-2-His
# Experiment: SPR Biacore 2000; antibody captured on anti-human antibody chip, 226 nM TR-2-His injected, 25 C, 1:1 model;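 further: goat anti-human capture surface amine-coupled on CM5 chip, HBS-P running buffer with BSA, responses normalized to captured antibody level, kinetics from global 1:1 fitting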
# Experimental: (§1) The kinetics of the binding of anti-TR-2 antibodies A to Q to TR-2 was analyzed using a Biacore® 2000 instrument. High-density goat anti-human antibody surfaces were prepared on CM-5 Biacore® chips using routine amine coupling. Each purified anti-TR-2 antibody was diluted to approximately 1 μg/ml in HBS-P running buffer containing 100 μg/ml BSA. Each anti-TR-2 antibody was captured on a separate surface using a two minute contact time and a five minute wash to stabilize the anti-TR-2 antibody surface on the chip.
# (§2) Additionally, the data for TR-2 binding to anti-TR-2 antibody were normalized for the amount of monoclonal antibody captured on each surface. Each data set was fit globally to a 1:1 interaction model to determine binding kinetics.
Binder,Kd [nM],koff [s⁻¹],kon [M⁻¹ s⁻¹]
"anti-TR-2 antibody M (antibody, V domains shown, also called Ab M) VH: EVQVVESGGGLVKPGGSLRLSCAASGFTFSSYSMNWVRQAPGKGLEWVSSISSSSSYIYYADSVKGRFTISRDNAKNSLYLQMNSLRAEDTAVYYCARGGSSWYGDWFDPWGQGTLVTVSS VL: DIQMTQSPSSVSASVGDRVTITCRASQGISSWLVWYQQKPGKAPKLLIYAASSLQSGVPSRFSGSGSGTDFTLTISSLQPEDFATYYCQQANSFPFTFGGGTKVEIK",37,0.012,340000
"anti-TR-2 antibody C (antibody, V domains shown, Human antibody from XenoMouse; also called Ab C) VH: QVQLQESGPGLVKPSQTLSLTCTVSGGSISSGGHYWSWIRQHPGKGLEWIGYIYYSGSAYYNPSLKSRVTISVDTSKNQFSLKLSSVTAADTAVYYCARDDSSGWGFDYWGQGILVTVSS VL: DIQMTQSPSSLSASVGDRVTITCRASQGLRNDLGWFQQKPGKAPKRLIYAASSLQRGVPSRFSGSGSGTEFTLTISSLQPEDFTTYFCLQHNSFPWTFGQGTKVEIK",3.9,0.0026,680000
"anti-TR-2 antibody G (antibody, V domains shown, also called Ab G) VH: QVQAEQSGPGLVKPSETLSLTCTVSGGSISNYYWSWIRQPPGKGLEWIGYIYYSGSTKYNPSLKSRVTISVDTSKNQFSLKLTSVTTADTAVYYCARDSPRGFSGYEAFDSWGQGTLVTVSS VL: not shown",31,0.019,600000
"anti-TR-2 antibody J (antibody, V domains shown, also called Ab J) VH: QVQLVESGGGVVQPGRSLRLSCAASGFTFNNYGMHWVRQAPGKGLEWVAVIWYDGSNKYYADSVKGRFTISRDNSKNTLYLQMNSLRAEDTAVYYCARDRTVYSNSSPFYYYYYGMDVWGQGTTVTVSS VL: DIQMTQSPSSLSASVGDRVTITCRTSQSISTYLNWYQQKPGKAPKLLISATSSLQSGVPSRFSGSGSGTDFTLTISSLQPEDFATYYCQQSYSTPLTFGGGTKVEIK",12,0.0071,570000

# Further lines, results first:
Kd [nM],koff [s⁻¹],kon [M⁻¹ s⁻¹],Binder
19,0.0084,440000,"anti-TR-2 antibody O (antibody, V domains shown, also called Ab O) VH: QVQLQESGPGLVKPSQTLSLTCTVSGGSISSGDYFWSWIRQLPGKGLECIGHIHNSGTTYYNPSLKSRVTISVDTSKKQFSLRLSSVTAADTAVYYCARDRGGDYYYGMDVWGQGTTVTVSS VL: EIVLTQSPGTLSLSPGERATLSCRASQGISRSYLAWYQQKPGQAPSLLIYGASSRATGIPDRFSGSGSGTDFTLTISRLEPEDFAVYYCQQFGSSPWTFGQGTKVEIK"
4.4,0.0013,290000,"anti-TR-2 antibody I (antibody, V domains shown, also called Ab I) VH: QVQLVESGGGLVKPGGSLRLSCAASGFTFSDYYMSWIRQAPGKGLEWVSYISRSGSTIYYADSVKGRFTISRDNAKNSLYLQMNSLRAEDTAVYYCARSLGGMDVWGQGTTVTVSS VL: not shown"
4.5,0.0027,620000,"anti-TR-2 antibody D (antibody, V domains shown, Human antibody from XenoMouse; also called Ab D) VH: QVQLQESGPGLVKPSQTLSLTCTVSGGSISSGGHYWSWIRQHPGKGLEWIGYIYYSGSAYYNPSLKSRVTISVDTSKNQFSLKLSSVTAADTAVYYCARDDSSGWGFDYWGQGILVTVSS VL: DIQMTQSPSSLSASVGDRVTITCRASQGLRNDLGWFQQKPGKAPKRLIYAASSLQRGVPSRFSGSGSGTEFTLTISSLQPEDFTTYFCLQHNSFPWTFGQGTKVEIK"
19,0.011,570000,"anti-TR-2 antibody B (antibody, V domains shown, Human antibody from XenoMouse; also called Ab B) VH: QVQLQESGPGLVKPSQTLSLTCTVSGGSISSGGHYWSWIRQHPGKGLEWIGYIYYSGSTYYNPSLKSRVTISVDTSKNQFSLKLSSVTAADTAVYYCARDDSSGWGFDYWGQGILVTVSS VL: DIQMTQSPSSLSASVGDRVTITCRASQGLRNDLGWFQQKPGKVTKRLIYAASSLQRGVPSRFSGSGSGTEFTLTISSLQPEDFATYYCLQHYSFPWTFGQGTKVEIK"
9.8,0.0084,860000,"anti-TR-2 antibody H (antibody, V domains shown, also called Ab H) VH: QVQLQESGPGLVKPSQTLSLTCTVSGGSISSDNYYWSWIRQHPGKGLEWIGYIYYSGSTYYNPSLKSRVTISVDTSKNQFSLKLSSVTAADTAVYYCARGVNWNFLFDIWGQGTMVTVSS VL: not shown"
13,0.005,380000,"anti-TR-2 antibody F (antibody, V domains shown, also called Ab F) VH: QVQLVESGGGVVQPGRSLRLSCAASGFTFSYYGIHWVRQAPGKGLEWVAVIWYDGSNKYYADSVKGRFTISRDNSKNTLYLQMNSLRAEDTAVYYCARGRYSSSSWWYFDLWGRGTLVTVSS VL: DIQMTQSPSSLSASVGDRVTITCRASQGISNYLAWYQQKPGKVPKLLIYAASTLQSGVPSRFSGSGSGTDFTLTISSLQPEDVATYYCQKYNSAPLTFGGGTKVEIK"
18,0.011,600000,"anti-TR-2 antibody L (antibody, V domains shown, also called Ab L) VH: QVQLQQWGARLLKPSETLSLTCAVYGGSFSGYYWSWIRQPPGKGLEWIGEINHSGSTNYNPSLKSRVTISVDTSKNQFSLKLRSVTAADTAVYYCARGGSSGYWYFDLWGRGTLVTVSS VL: not shown"
2.1,0.0018,870000,"anti-TR-2 antibody E (antibody, V domains shown, also called Ab E) VH: QVQLVESGGGLVKPGGSLRLSCAASGFTFSDYYMNWIRQAPGKGLEWVSHISSSGSILDYADSVKGRFTISRDNAKNSLYLQMNSLRVEDTAVYYCARDGAAAGTDAFDLWGQGTMVTVSS VL: DIQMTQSPSSLSASVGDRVTITCRSSQSISNYINWYQQRPGKAPNLLIHDVSSFQSAVPSRFSRSGSGTVFTLTISSLQPEDFATYFCQQTYITPFTFGPGTKVDIK"
6.9,0.0037,530000,"anti-TR-2 antibody A (antibody, V domains shown, also called Ab A) VH: QVQLVQSGAEVKKPGASVKVSCKASGYTFTSYDINWVRQATGQGLEWMGWMNPNSDNTGYAQKFQGRVTMTRNTSISTAYMELSSLRSEDTAVYYCARWNHYGSGSHFDYWGQGTLVTVSS VL: DIQMTQSPSSLSASVGDRVTITCRASQSISIYLNWYQQKPGKAPKLLIYAASSLQSGVPLRFSGSGSGTDFTLTISSLQPEDIATYYCQQSYKTPLTFGGGTKVEIK"
18,0.012,680000,"anti-TR-2 antibody K (antibody, V domains shown, also called Ab K) VH: QVQLVESGGGVVQPGRSLRLSCAASGFTFSTYGMHWVRQAPGKGLEWVAVIWYDGSNKYYADSVKGRFTISRDNSKNTLYLQMNSLRAEDTAVYYCARDRTVYSSSSPFYYYYYGMDVWGQGTTVTVSS VL: DIQMTQSPSSLSASVGDRVTITCRASQSISSYLNWYQQKPGKAPKLLISATSSFQSGVPSRFSGSGSGTDFTLTISSLQPEDFAAYYCQQSYSTPLTFGGGTKVEIK"

# Target: T1, recombinant human TR-2 with a …
# Experiment: SPR Biacore 2000; antibody captured on anti-human antibody chip, 226 nM TR-2-His injected, 25 C, 1:1 model; data heterogeneous, fit poorly
# Experimental: as §1, §2
Kd [nM],koff [s⁻¹],kon [M⁻¹ s⁻¹],Binder
33,0.027,810000,"anti-TR-2 antibody P (antibody, V domains shown, Human antibody from XenoMouse; also called Ab P) VH: QVQLQESGPGLVKPSQTLSLTCSVSGGSISSGGYYWSWIRQHPGKGLEWIGYIYYSGSTYCNPSLKSRVTISVDTSKNQFSLKLSSVTAADTAVYYCARDNGSGSYDWFDPWGQGILVTVSS VL: DIQMTQSPSSVSASVGDRVTITCRASQGISSWLAWYQQKPGKAPKFLIFVASSFQSGVPSRFSGSGSGTDFTLTISSLQPEDFATYYCQQANSFPRTFGQGTKVEIK"
13,0.016,1.2e+06,"anti-TR-2 antibody Q (antibody, V domains shown, Human antibody from XenoMouse; also called Ab Q) VH: QVQMQESGPGLVKPSQTLSLTCTVSGGSISSGDYYWSWIRQHPGKNLEWIGYIYYSGSTYYNPSLKSRVTISVDTSKNQFSLKLSSVTAADTAVYYCARDNGSGSYDWFDPWGQGTLVTVSS VL: DIQMTQSPSSVSASVGDRVTITCRASQGISSWLAWYQQKPGKAPKFLIFVASSLQSGVPSRFSGSGSGTDFTLTISSLQPEDFATYYCQQANSFPRTFGQGTKVEIK"
68,0.055,810000,"anti-TR-2 antibody N (antibody, V domains shown, also called Ab N) VH: QLVESGGGVVQPGRSLRLSCAASGFTFSSYGMHWVRQAPGKGLEWVAVIWYDGRNKYYADSVKGRFTISRDNSKNTLYLQMNSLRAEDTAVYYCAREVGYCTNGVCSYYYYGMDVWGQGTTVTVSS VL: DIQMTQSPSSLSASVGDRVTITCRASQGISNYLAWFQQKPGKAPKSLIYAASSLQSGVPSKFSGSGSGTDFTLTISSLQPEDFATYYCQQYNSYPLTFGGGTKVEIK"
